The source of these data is patent US20220306695A1, “COMPSTATIN ANALOGUES AND THEIR MEDICAL USES” (priority 2019, published 2022).

Positions of bridges follow the written chain, without caps; N, C: chain ends. Bounds are passed on as bounds.

The chains are these.
B1: Compound 37 (peptide)
peptide: Ac-KEKICIWQDWGEHRCTEKE-NH2
modifications: disulfide 5-15
SMILES: CC[C@H](C)[C@@H]1NC(=O)[C@@H](NC(=O)[C@@H](NC(=O)[C@H](CCCCN)NC(=O)[C@H](CCC(=O)O)NC(=O)[C@H](CCCCN)NC(C)=O)[C@@H](C)CC)CSSC[C@@H](C(=O)N[C@H](C(=O)N[C@@H](CCC(=O)O)C(=O)N[C@@H](CCCCN)C(=O)N[C@@H](CCC(=O)O)C(N)=O)[C@@H](C)O)NC(=O)[C@H](CCCNC(=N)N)NC(=O)[C@H](Cc2c[nH]cn2)NC(=O)[C@H](CCC(=O)O)NC(=O)CNC(=O)[C@H](Cc2c[nH]c3ccccc23)NC(=O)[C@H](CC(=O)O)NC(=O)[C@H](CCC(N)=O)NC(=O)[C@H](Cc2c[nH]c3ccccc23)NC1=O
B2: Compound 34 (peptide)
peptide: Ac-EICIWQDWGEHRCTEGE-NH2
modifications: disulfide 3-13
SMILES: CC[C@H](C)[C@@H]1NC(=O)[C@@H](NC(=O)[C@@H](NC(=O)[C@H](CCC(=O)O)NC(C)=O)[C@@H](C)CC)CSSC[C@@H](C(=O)N[C@H](C(=O)N[C@@H](CCC(=O)O)C(=O)NCC(=O)N[C@@H](CCC(=O)O)C(N)=O)[C@@H](C)O)NC(=O)[C@H](CCCNC(=N)N)NC(=O)[C@H](Cc2c[nH]cn2)NC(=O)[C@H](CCC(=O)O)NC(=O)CNC(=O)[C@H](Cc2c[nH]c3ccccc23)NC(=O)[C@H](CC(=O)O)NC(=O)[C@H](CCC(N)=O)NC(=O)[C@H](Cc2c[nH]c3ccccc23)NC1=O
B3: Compound 33 (peptide)
peptide: Ac-EICIWQDWGEHRCTE-NH2
modifications: disulfide 3-13
SMILES: CC[C@H](C)[C@@H]1NC(=O)[C@@H](NC(=O)[C@@H](NC(=O)[C@H](CCC(=O)O)NC(C)=O)[C@@H](C)CC)CSSC[C@@H](C(=O)N[C@H](C(=O)N[C@@H](CCC(=O)O)C(N)=O)[C@@H](C)O)NC(=O)[C@H](CCCNC(=N)N)NC(=O)[C@H](Cc2c[nH]cn2)NC(=O)[C@H](CCC(=O)O)NC(=O)CNC(=O)[C@H](Cc2c[nH]c3ccccc23)NC(=O)[C@H](CC(=O)O)NC(=O)[C@H](CCC(N)=O)NC(=O)[C@H](Cc2c[nH]c3ccccc23)NC1=O
B4: Compound 36 (peptide)
peptide: Ac-ESEICIWQDWGEHRCEGE-NH2
modifications: disulfide 5-15
SMILES: CC[C@H](C)[C@@H]1NC(=O)[C@@H](NC(=O)[C@@H](NC(=O)[C@H](CCC(=O)O)NC(=O)[C@H](CO)NC(=O)[C@H](CCC(=O)O)NC(C)=O)[C@@H](C)CC)CSSC[C@@H](C(=O)N[C@@H](CCC(=O)O)C(=O)NCC(=O)N[C@@H](CCC(=O)O)C(N)=O)NC(=O)[C@H](CCCNC(=N)N)NC(=O)[C@H](Cc2c[nH]cn2)NC(=O)[C@H](CCC(=O)O)NC(=O)CNC(=O)[C@H](Cc2c[nH]c3ccccc23)NC(=O)[C@H](CC(=O)O)NC(=O)[C@H](CCC(N)=O)NC(=O)[C@H](Cc2c[nH]c3ccccc23)NC1=O
B5: Compound 35 (peptide)
peptide: Ac-EGEICIWQDWGEHRCEGE-NH2
modifications: disulfide 5-15
SMILES: CC[C@H](C)[C@@H]1NC(=O)[C@@H](NC(=O)[C@@H](NC(=O)[C@H](CCC(=O)O)NC(=O)CNC(=O)[C@H](CCC(=O)O)NC(C)=O)[C@@H](C)CC)CSSC[C@@H](C(=O)N[C@@H](CCC(=O)O)C(=O)NCC(=O)N[C@@H](CCC(=O)O)C(N)=O)NC(=O)[C@H](CCCNC(=N)N)NC(=O)[C@H](Cc2c[nH]cn2)NC(=O)[C@H](CCC(=O)O)NC(=O)CNC(=O)[C@H](Cc2c[nH]c3ccccc23)NC(=O)[C@H](CC(=O)O)NC(=O)[C@H](CCC(N)=O)NC(=O)[C@H](Cc2c[nH]c3ccccc23)NC1=O

The test deals with Human C3 (human, UniProt P01024 23-1663). Kind of test: cell-based or functional assay.
Human C3, sequence (P01024 23-1663 limits assumed): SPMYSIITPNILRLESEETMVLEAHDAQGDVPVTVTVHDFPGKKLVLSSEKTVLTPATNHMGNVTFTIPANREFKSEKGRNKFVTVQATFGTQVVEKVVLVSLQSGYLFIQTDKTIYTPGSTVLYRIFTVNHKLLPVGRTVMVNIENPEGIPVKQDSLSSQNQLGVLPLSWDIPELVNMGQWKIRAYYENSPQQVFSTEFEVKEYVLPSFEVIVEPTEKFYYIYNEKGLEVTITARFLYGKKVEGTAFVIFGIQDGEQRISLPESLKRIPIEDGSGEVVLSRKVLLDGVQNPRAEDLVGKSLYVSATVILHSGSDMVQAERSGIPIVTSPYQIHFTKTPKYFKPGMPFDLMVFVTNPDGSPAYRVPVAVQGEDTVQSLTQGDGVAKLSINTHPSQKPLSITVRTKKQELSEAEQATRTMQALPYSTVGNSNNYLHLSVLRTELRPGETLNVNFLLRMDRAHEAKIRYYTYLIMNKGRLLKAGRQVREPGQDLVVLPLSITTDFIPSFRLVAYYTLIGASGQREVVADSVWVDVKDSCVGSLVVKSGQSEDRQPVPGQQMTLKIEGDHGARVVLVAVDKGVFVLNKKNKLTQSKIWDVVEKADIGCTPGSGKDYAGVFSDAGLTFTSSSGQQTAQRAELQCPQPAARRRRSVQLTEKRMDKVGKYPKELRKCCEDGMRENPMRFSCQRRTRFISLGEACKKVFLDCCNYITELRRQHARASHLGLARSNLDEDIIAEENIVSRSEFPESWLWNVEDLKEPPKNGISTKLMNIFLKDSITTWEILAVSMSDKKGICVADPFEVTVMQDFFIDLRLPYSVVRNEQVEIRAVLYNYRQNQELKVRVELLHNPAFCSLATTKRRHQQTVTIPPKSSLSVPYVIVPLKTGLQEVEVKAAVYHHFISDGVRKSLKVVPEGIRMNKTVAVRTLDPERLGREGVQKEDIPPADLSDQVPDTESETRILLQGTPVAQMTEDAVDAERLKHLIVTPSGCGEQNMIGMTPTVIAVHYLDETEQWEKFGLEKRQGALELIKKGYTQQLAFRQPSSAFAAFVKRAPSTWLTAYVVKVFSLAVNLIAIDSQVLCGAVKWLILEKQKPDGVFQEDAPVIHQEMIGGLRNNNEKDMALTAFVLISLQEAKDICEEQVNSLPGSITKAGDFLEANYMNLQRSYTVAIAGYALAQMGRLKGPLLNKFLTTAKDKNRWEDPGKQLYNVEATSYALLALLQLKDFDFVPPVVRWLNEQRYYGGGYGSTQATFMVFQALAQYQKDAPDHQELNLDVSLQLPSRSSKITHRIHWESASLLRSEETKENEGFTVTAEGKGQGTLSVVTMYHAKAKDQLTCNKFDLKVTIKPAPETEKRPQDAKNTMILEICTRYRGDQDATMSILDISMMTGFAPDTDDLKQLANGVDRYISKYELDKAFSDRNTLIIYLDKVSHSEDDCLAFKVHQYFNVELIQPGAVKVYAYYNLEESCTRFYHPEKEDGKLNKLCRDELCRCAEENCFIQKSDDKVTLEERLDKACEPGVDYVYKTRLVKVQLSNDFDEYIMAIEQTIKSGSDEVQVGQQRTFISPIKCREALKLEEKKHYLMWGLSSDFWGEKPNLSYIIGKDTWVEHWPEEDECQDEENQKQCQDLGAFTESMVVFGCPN
B1: the “IC50[nM], inhibition of hemolysis” value is below 250 nM.
For the molecule B2, the “IC50[nM], inhibition of hemolysis” value was below 250 nM.
Turning to B3, the “IC50[nM], inhibition of hemolysis” value is below 100 nM.
With B4, the “IC50[nM], inhibition of hemolysis” value is below 250 nM.
For the molecule B5, the “IC50[nM], inhibition of hemolysis” value is below 500 nM.
